Laboratory results published in US20120329711A1, “GLP-1 RECEPTOR AGONIST COMPOUNDS WITH A MODIFIED N-TERMINUS” (Nordisk A/S, priority 2009, published 2012).
Where two headings read alike, the source gives them in different places.

Experiments:
[1] = biological target: T1, human GLP-1 receptor (Homo sapiens, UniProt P43220); assay: SPA displacement of [^125I]-GLP-1(7-36)NH2 from BHK membranes with the human GLP-1 receptor, 0.005% HSA (low albumin)
[2] = biological target: Human Serum Albumin (human) (UniProt P02768); assay: shift of the GLP-1 receptor IC50 (SPA displacement of ^125I-GLP-1) between 2.0% and 0.005% HSA, which the filing takes as an indication of albumin binding
[3] = biological target: T1, human GLP-1 receptor
[4] = biological target: T1, human GLP-1 receptor; assay: SPA displacement of [^125I]-GLP-1(7-36)NH2 from BHK membranes with the human GLP-1 receptor, 2.0% HSA (high albumin)
[5] = biological target: T1, human GLP-1 receptor; remark: listed apart in the source

Substance	IC50 [1] [nM]	ratio [(IC50/nM) high HSA]/[(IC50/nM) low HSA] [2]	EC50 of cAMP formation (AlphaScreen cAMP assay) [3] [nM]	IC50 [4] [nM]	EC50 of cAMP formation (AlphaScreen cAMP assay) [5] [pM]
N^9-(5-oxo-5-phenylpentanoyl), N^ε26-[2-[2-[2-[[2-[2-[2-[[(4S)-4-carboxy-4-(17-carboxyheptadecanoylamino)butanoyl]amino]ethoxy]ethoxy]acetyl]amino]ethoxy]ethoxy]acetyl]-[Arg^34]-GLP-1-(9-37)-peptide	> 40	> 300	> 8		
N^3-{2-[2-(1H-Imidazol-4-yl)-methylcarbamoyl]-2-methyl-propionyl}-[2-(2-{2-[2-(2-{2-[(S)-4-Carboxy-4-(17-carboxyheptadecanoylamino)-butyrylamino]ethoxy}ethoxy)-acetylamino]ethoxy}-ethoxy)acetyl][Arg^17,Arg^20,Arg^33,Lys^38]GLP-1A(3-37)-peptide					< 2100
N^9-{2-[2-(1H-Imidazol-4-yl)-ethylcarbamoyl]-2-methyl-propionyl}N^ε26-[2-(2-{2-[2-(2-{2-[(S)-4-Carboxy-4-(17-carboxyheptadecanoylamino)butyrylamino]ethoxy}ethoxy)acetylamino]ethoxy}ethoxy)acetyl][Arg^34]GLP-1(9-37)-peptide	< 40	> 10		< 900	< 2100
N^9-{2-[2-(1H-Imidazol-4-yl)-ethylcarbamoyl]-2-methyl-propionyl}-N^ε26-[2-(2-{2-[2-(2-{2-[(S)-4-Carboxy-4-(17-carboxyheptadecanoylamino)butyrylamino]ethoxy}ethoxy)acetylamino]ethoxy}ethoxy)acetyl][His^31,Gln^34]GLP-1(9-37)-peptide	< 40	> 10		< 900	< 2100
N^9-{2-[2-(1H-Imidazol-4-yl)-ethylcarbamoyl]-2-methyl-propionyl}-N^ε26-{2-[2-(2-{2-[2-(2-{(S)-4-Carboxy-4-[10-(4-carboxy-phenoxy)-decanoylamino]-butyrylamino}-ethoxy)-ethoxy]-acetylamino}-ethoxy)-ethoxy]-acetyl}, N^ε37-{2-[2-(2-{2-[2-(2-{(S)-4-Carboxy-4-[10-(4-carboxy-phenoxy)-decanoylamino]-butyrylamino}-ethoxy)-ethoxy]-acetylamino}-ethoxy)-ethoxy]-acetyl}[Arg^34,Lys^37]GLP-1(9-37)-peptide	< 40	> 10		< 900	< 2100
N^9-[-{2-[2-(1H-Imidazol-4-yl)-ethylcarbamoyl]-2-methyl-propionyl}-N^ε18-[2-(2-[2-(2-[2-(2-((S)-3-[1-(19-Carboxy-nonadecanoyl)-piperidine-4-carboxyamino]-3-carboxypropionylamino)ethoxy)ethoxy]acetylamino)ethoxy]ethoxy)acetyl][Lys^18,Glu^22, Gln^34]GLP-1(9-37)-peptide	< 40	> 10		< 900	< 2100

Other lines, results leading:

IC50 [1] [nM]	ratio [(IC50/nM) high HSA]/[(IC50/nM) low HSA] [2]	EC50 of cAMP formation (AlphaScreen cAMP assay) [3] [nM]	IC50 [4] [nM]	EC50 of cAMP formation (AlphaScreen cAMP assay) [5] [pM]	Substance
< 40	> 10		< 900	< 2100	N^9-{2-[2-(1H-Imidazol-4-yl)methylcarbamoyl]-2-methyl-propionyl}-N^ε36-(2-{2-[2-(17-carboxyheptadecanoylamino)ethoxy}ethoxy]acetyl)[Glu^30,Lys^36]GLP-1(9-37) Glu^38-peptide amide
< 40	> 10		< 900	< 2100	N^9-{2-[2-(1H-Imidazol-4-yl)-ethylcarbamoyl]-2-methyl-propionyl}-N^ε26-{2-[2-(2-{2-[2-(2-{(S)-4-[4-(4-tert-Butyl-phenyl)-butyrylamino]-4-carboxy-butyrylamino}-ethoxy)-ethoxy]-acetylamino}-ethoxy)-ethoxy]-acetyl}, N^ε37-{2-[2-(2-{2-[2-(2-{(S)-4-[4-(4-tert-Butyl-phenyl)-butyrylamino]-4-carboxy-butyrylamino}-ethoxy)-ethoxy]-acetylamino}-ethoxy)-ethoxy]-acetyl}[Arg^34, Lys^37]GLP-1(9-37)-peptide
< 40	> 10		< 900	< 2100	N^9-{2-[2-(1H-Imidazol-4-yl)-propylcarbamoyl]-2-methyl-propionyl}-N^ε36-(2-{2-[2-(17-carboxyheptadecanoylamino)ethoxy]ethoxy}acetyl) [Glu^30,Lys^36]GLP-1(9-37)Glu^38-peptide amide
< 40	> 10		< 900	< 2100	N^9-{2-[2-(1H-Imidazol-4-yl)-ethylcarbamoyl]-2-methyl-propionyl}N^ε26-{2-[2-(2-{2-[2-(2-{(S)-4-Carboxy-4-[10-(4-carboxy-phenoxy)-decanoylamino]-butyrylamino}-ethoxy)-ethoxy]-acetylamino}-ethoxy)-ethoxy]-acetyl}, N^ε37-{2-[2-(2-{2-[2-(2-{(S)-4-Carboxy-4-[10-(4-carboxy-phenoxy)-decanoylamino]-butyrylamino}-ethoxy)-ethoxy]-acetylamino}-ethoxy)-ethoxy]-acetyl}[Arg^34,Lys^37]GLP-1(9-37)Glu^38-peptide
< 40	> 10		< 900	< 2100	N^9-[2,2-dimethyl-3-oxo-3-(pyridin-2-ylmethylamino)propanoyl], N^ε26-[2-[2-[2-[[2-[2-[2-[[(4S)-4-carboxy-4-[10-(4-carboxyphenoxy)decanoylamino]butanoyl]amino]ethoxy]ethoxy]acetyl]amino]ethoxy]ethoxy]acetyl], N^ε37-[2-[2-[2-[[2-[2-[2-[[(4S)-4-carboxy-4-[10-(4-carboxyphenoxy)decanoylamino]butanoyl]amino]ethoxy]ethoxy]acetyl]amino]ethoxy]ethoxy]acetyl]-[Arg^34,Lys^3]-GLP-1-(9-37)-peptide
< 40	> 10		< 900	< 2100	N^9-{2-[2-(1H-Imidazol-4-yl)-ethylcarbamoyl]-2-methyl-propionyl}-N^ε36-(2-{2-[2-(17-carboxyheptadecanoylamino)ethoxy]ethoxy}acetyl) (Glu^30,Lys^36)GLP-1(9-37) Glu^38-peptide amide
